4 molecules from article PMC5682392, “Site-Directed Mutagenesis Study Revealed Three Important Residues in Hc-DAF-22, a Key Enzyme Regulating Diapause of Haemonchus contortus” (Frontiers in Microbiology, 2017) can be followed below.

Data set [1] relates to CC(=O)CC(=O)SCCNC(=O)CCNC(=O)[C@H](O)C(C)(C)COP(=O)(O)OP(=O)(O)OC[C@H]1O[C@@H](n2cnc3c(N)ncnc32)[C@H](O)[C@@H]1OP(=O)(O)O. Put plainly: purified protein. It counts as biochemical, Haemonchus contortus. The settings on record: 60 μM CoA co-substrate, 20 mM MgCl2, 50 mM Tris-Cl pH 8.1 (pH 8.0 also stated), 37°C, varied substrate not given, taken as AcAc-CoA.
Substrate in the data set “purified protein”: CC(=O)CC(=O)SCCNC(=O)CCNC(=O)[C@H](O)C(C)(C)COP(=O)(O)OP(=O)(O)OC[C@H]1O[C@@H](n2cnc3c(N)ncnc32)[C@H](O)[C@@H]1OP(=O)(O)O
As to the kind of experiment: purified protein. The settings on record: 60 μM CoA co-substrate, 20 mM MgCl2, 50 mM Tris-Cl pH 8.1 (pH 8.0 also stated), 37°C, varied substrate not given, taken as AcAc-CoA, text prints 33.765. Type of data set: biochemical, Haemonchus contortus.

As to Hc-DAF-22 (Haemonchus contortus; C84S), in data set [1], the Km stood at 51.25 µM and the Vmax was 0.693 µM/min.
The like results for Hc-DAF-22 (Haemonchus contortus; H299A) were, in that order, 79.85 µM and 1.39 µM/min.
On to Hc-DAF-22 (Haemonchus contortus; H349A), for which, in data set [1], the Km was found to be 78.50 µM and the maximum rate (Vmax) turned out to be 0.765 µM/min.

B1: Hc-DAF-22 (Haemonchus contortus) (protein)
chain: MGKSKVYVIGVGMTKFCKPGSRDWDYPDMVKEAVNMALDDCSLKYTDIQQATVGYLFGGTCCGQRALYELGFTGIPIFNVNNACASGSSGLYLCKQIIESGNSDVVLACGFEKMATGSLDTQAGNSDGRALSVDNHIQVMSDTYGLFPAPITAQMFANAGKEHMEKYGTKREHFAKIAWKNHLHSVHNPNSQFTKEFSLDQVMNARKIYDFMGLLECSPTSDGSAAAVLCSERFLEQNPRLKPQAVEIVGLELGTDQPSVFKENSNIKMIGFDMIKKISSDLYRNTGLCPNDVQVIELHDCFAPNELITYEALGLCDVGKGGTIVDRGDNTYGGKWVINPSGGSISKGHPIGATGVAQVVELSNQLRGKCGKRQVPNCKIAMQHNIGIGGAGVVGLYRLAYPSSTCPPTTKSSPTMSAFKSDVIFEEIKQRINEEKELVKKIATSFRIIITGEDGTVKKWTIDAKSDTPYVGDDDRKVEVEITIKDSDFMNIAAGKLKADQAFMQGKMKLKGNIAKSMKLKTLLDPKMLKAKI
For B1, in “purified protein”, the Michaelis-Menten constant (Km) came out at 33.76 µM and the maximum rate (Vmax) worked out at 1.78 µM/min.
